Reference: publication PMC4795164

Substrate: N[C@@H](CSSC[C@H](N)C(=O)O)C(=O)O
Experiment: purified protein
Type: biochemical, Homo sapiens
Details: 100 µM AdoMet, 50 µM PLP, 100 mM HEPES pH 7.4, 37 °C

B1: human CBS (cystathionine beta-synthase) (Homo sapiens) (protein)
chain: MPSETPQAEVGPTGCPHRSGPHSAKGSLEKGSPEDKEAKEPLWIRPDAPSRCTWQLGRPASESPHHHTAPAKSPKILPDILKKIGDTPMVRINKIGKKFGLKCELLAKCEFFNAGGSVKDRISLRMIEDAERDGTLKPGDTIIEPTSGNTGIGLALAAAVRGYRCIIVMPEKMSSEKVDVLRALGAEIVRTPTNARFDSPESHVGVAWRLKNEIPNSHILDQYRNASNPLAHYDTTADEILQQCDGKLDMLVASVGTGGTITGIARKLKEKCPGCRIIGVDPEGSILAEPEELNQTEQTTYEVEGIGYDFIPTVLDRTVVDKWFKSNDEEAFTFARMLIAQEGLLCGGSAGSTVAVAVKAAQELQEGQRCVVILPDSVRNYMTKFLSDRWMLQKGFLKEEDLTEKKPWWWHLRVQELGLSAPLTVLPTITCGHTIEILREKGFDQAPVVDEAGVILGMVTLGNMLSSLLAGKVQPSDQVGKVIYKQFKQIRLTDTLGRLSHILEMDHFALVVHEQIQYHSTGKSSQRQMVFGVVTAIDLLNFVAAQERDQK
Q: Which results are given for B1?
A: Km: 1300 ± 100 µM; Vmax: 0.102 µmol/min/mg; kcat: 0.11 s⁻¹; kcat/Km: 85 M⁻¹ s⁻¹
